From paper PMC10397247
Like-named read-outs stand apart in the source and are kept apart here.

Experiments:
[1] = target: T1, O9-bP; assay: two-hybrid library CCNG1; settings: mean of both orientations;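 note: natural log of median RNA to DNA barcode read ratio; higher means stronger binding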
T1 chain: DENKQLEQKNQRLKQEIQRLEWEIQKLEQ

[2] = target: T2, P8; assay: two-hybrid library CC1; settings: mean of both orientations;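 note: natural log of median RNA to DNA barcode read ratio; higher means stronger binding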
T2 chain: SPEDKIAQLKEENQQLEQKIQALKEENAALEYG

[3] = target: T3, P7mS; assay: two-hybrid library CC1;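 note: natural log of median RNA to DNA barcode read ratio; higher means stronger binding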
T3 chain: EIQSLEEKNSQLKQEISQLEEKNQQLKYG

[4] = target: T4, P9; assay: two-hybrid library CC1; settings: mean of both orientations;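 note: natural log of median RNA to DNA barcode read ratio; higher means stronger binding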
T4 chain: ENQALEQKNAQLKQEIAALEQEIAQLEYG

[5] = target: T5, P8mS; assay: two-hybrid library CC1; settings: mean of both orientations;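 note: natural log of median RNA to DNA barcode read ratio; higher means stronger binding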
T5 chain: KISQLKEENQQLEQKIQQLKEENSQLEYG

[6] = target: T6, 4H968-bA; assay: two-hybrid library CCNG1;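 note: natural log of median RNA to DNA barcode read ratio; higher means stronger binding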
T6 chain: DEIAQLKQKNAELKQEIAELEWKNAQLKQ

[7] = target: T7, 4H591-bA; assay: two-hybrid library CCNG1
T7 chain: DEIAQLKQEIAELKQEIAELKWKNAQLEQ

[8] = target: T8, 4H4073-bA; assay: two-hybrid library CCNG1
T8 chain: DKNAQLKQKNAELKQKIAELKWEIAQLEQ

[9] = target: T9, 4H797-bA; assay: two-hybrid library CCNG1
T9 chain: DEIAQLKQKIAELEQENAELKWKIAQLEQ

[10] = target: T10, 4H918-bA; assay: two-hybrid library CCNG1
T10 chain: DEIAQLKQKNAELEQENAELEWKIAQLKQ

[11] = target: T11, 4H780-bA; assay: two-hybrid library CCNG1
T11 chain: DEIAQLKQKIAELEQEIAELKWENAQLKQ

[12] = target: T12, 4H3926-bA; assay: two-hybrid library CCNG1; settings: mean of both orientations
T12 chain: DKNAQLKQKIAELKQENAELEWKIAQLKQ

[13] = target: T13, 4H575-bA; assay: two-hybrid library CCNG1
T13 chain: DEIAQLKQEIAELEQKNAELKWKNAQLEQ

[14] = target: T14, 4H754-bA; assay: two-hybrid library CCNG1
T14 chain: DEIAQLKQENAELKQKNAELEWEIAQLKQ

[15] = target: T15, 4H457-bA; assay: two-hybrid library CCNG1
T15 chain: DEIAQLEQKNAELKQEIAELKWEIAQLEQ

[16] = target: T16, 4H683-bA; assay: two-hybrid library CCNG1
T16 chain: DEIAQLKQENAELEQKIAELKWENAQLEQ

[17] = target: T17, 4H906-bA; assay: two-hybrid library CCNG1
T17 chain: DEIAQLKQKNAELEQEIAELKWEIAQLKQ

[18] = target: T18, 4H855-bA; assay: two-hybrid library CCNG1
T18 chain: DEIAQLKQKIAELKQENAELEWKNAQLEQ

[19] = target: T19, 4H953-bA; assay: two-hybrid library CCNG1
T19 chain: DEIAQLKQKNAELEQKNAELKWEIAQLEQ

[20] = target: T20, 4H626-bA; assay: two-hybrid library CCNG1
T20 chain: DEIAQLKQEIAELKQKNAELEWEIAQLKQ

[21] = target: T21, 4H486-AA; assay: two-hybrid library CCmax
T21 chain: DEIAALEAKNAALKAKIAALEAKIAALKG

[22] = target: T22, 4H895-AA; assay: two-hybrid library CCmax; settings: mean of both orientations
T22 chain: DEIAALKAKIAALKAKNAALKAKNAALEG

[23] = target: T23, 4H58-AA; assay: two-hybrid library CCmax; settings: mean of both orientations
T23 chain: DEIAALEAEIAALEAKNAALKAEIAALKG

[24] = target: T24, 4H_APH; assay: two-hybrid library CCmax
T24 chain: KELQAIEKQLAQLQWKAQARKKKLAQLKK

[25] = target: T25, 4H535-AA; assay: two-hybrid library CCmax; settings: mean of both orientations
T25 chain: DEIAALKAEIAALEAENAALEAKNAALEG

[26] = target: GCN2_T; assay: two-hybrid library CCmax
[27] = target: T26, 4H_BCR; assay: two-hybrid library CCmax; settings: mean of both orientations
T26 chain: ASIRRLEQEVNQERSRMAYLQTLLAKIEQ

[28] = target: 4H_GCN4; assay: two-hybrid library CCmax
Chain of 4H_GCN4 (chain, as listed by the source): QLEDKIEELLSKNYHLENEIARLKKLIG

[29] = target: T27, 4H462-bH; assay: two-hybrid library CCNG1
T27 chain: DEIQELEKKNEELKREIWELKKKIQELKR

[30] = target: T28, 4H568-bH; assay: two-hybrid library CCNG1
T28 chain: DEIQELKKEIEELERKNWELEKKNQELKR

[31] = target: T29, 4H906-bN; assay: two-hybrid library CCNG1
T29 chain: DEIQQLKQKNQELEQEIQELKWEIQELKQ

[32] = target: T30, 4H687-bH; assay: two-hybrid library CCNG1
T30 chain: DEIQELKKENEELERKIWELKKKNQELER

[33] = target: T31, 4H797-bH; assay: two-hybrid library CCNG1
T31 chain: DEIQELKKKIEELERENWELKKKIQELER

[34] = target: T32, 4H883-bH; assay: two-hybrid library CCNG1
T32 chain: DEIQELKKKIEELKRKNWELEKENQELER

[35] = target: T33, 4H72-bH; assay: two-hybrid library CCNG1
T33 chain: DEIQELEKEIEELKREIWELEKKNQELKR

[36] = target: T34, 4H607-bH; assay: two-hybrid library CCNG1
T34 chain: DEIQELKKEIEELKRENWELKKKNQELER

[37] = target: T35, 4H918-bH; assay: two-hybrid library CCNG1
T35 chain: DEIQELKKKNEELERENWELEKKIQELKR

[38] = target: T36, 4H967-bH; assay: two-hybrid library CCNG1
T36 chain: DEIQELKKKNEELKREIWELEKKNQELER

[39] = target: T37, 4H953-bH; assay: two-hybrid library CCNG1
T37 chain: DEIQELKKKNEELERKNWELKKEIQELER

[40] = target: T38, 4H3413-AA; assay: two-hybrid library CCmax; settings: mean of both orientations
T38 chain: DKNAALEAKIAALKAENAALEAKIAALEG

[41] = target: T39, 4H340-AA; assay: two-hybrid library CCmax; settings: mean of both orientations
T39 chain: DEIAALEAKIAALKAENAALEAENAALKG

[42] = target: T40, 4H3718-AA; assay: two-hybrid library CCmax; settings: mean of both orientations
T40 chain: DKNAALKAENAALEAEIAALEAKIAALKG

[43] = target: T41, 4H3162-AA; assay: two-hybrid library CCmax; settings: mean of both orientations
T41 chain: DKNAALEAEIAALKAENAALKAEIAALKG

[44] = target: T42, 4H2907-AA; assay: two-hybrid library CCmax; settings: mean of both orientations
T42 chain: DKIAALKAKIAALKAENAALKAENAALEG

[45] = target: T43, 4H3631-AA; assay: two-hybrid library CCmax; settings: mean of both orientations
T43 chain: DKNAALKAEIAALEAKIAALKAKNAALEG

[46] = target: T44, 4H982-AA; assay: two-hybrid library CCmax; settings: mean of both orientations
T44 chain: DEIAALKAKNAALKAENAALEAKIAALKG

[47] = target: T45, 4H3378-AA; assay: two-hybrid library CCmax; settings: mean of both orientations
T45 chain: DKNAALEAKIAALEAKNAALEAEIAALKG

[48] = target: T46, 4H3056-AA; assay: two-hybrid library CCmax; settings: mean of both orientations
T46 chain: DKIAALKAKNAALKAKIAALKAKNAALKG

[49] = target: T47, 4H3865-AA; assay: two-hybrid library CCmax; settings: mean of both orientations
T47 chain: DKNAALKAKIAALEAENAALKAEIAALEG

[50] = target: T48, 4H32-AA; assay: two-hybrid library CCmax; settings: mean of both orientations
T48 chain: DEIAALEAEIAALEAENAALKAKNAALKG

[51] = target: T49, 4H697-AA; assay: two-hybrid library CCmax; settings: mean of both orientations
T49 chain: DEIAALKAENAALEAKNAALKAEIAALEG

[52] = target: T50, 4H2648-AA; assay: two-hybrid library CCmax
T50 chain: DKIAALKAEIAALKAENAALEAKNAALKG

[53] = target: T51, 4H384-AA; assay: two-hybrid library CCmax; settings: mean of both orientations
T51 chain: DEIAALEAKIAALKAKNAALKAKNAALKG

[54] = target: T52, 4H3588-AA; assay: two-hybrid library CCmax; settings: mean of both orientations
T52 chain: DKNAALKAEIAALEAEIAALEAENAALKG

[55] = target: T53, 4H3697-AA; assay: two-hybrid library CCmax; settings: mean of both orientations
T53 chain: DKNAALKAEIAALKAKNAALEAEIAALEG

[56] = target: T54, 4H3606-AA; assay: two-hybrid library CCmax; settings: mean of both orientations
T54 chain: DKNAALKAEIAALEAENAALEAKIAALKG

[57] = target: T55, 4H3133-AA; assay: two-hybrid library CCmax; settings: mean of both orientations
T55 chain: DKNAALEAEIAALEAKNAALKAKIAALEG

[58] = target: T56, 4H584-bN; assay: two-hybrid library CCNG1
T56 chain: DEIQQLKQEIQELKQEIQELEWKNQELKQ

[59] = target: T57, 4H619-bN; assay: two-hybrid library CCNG1
T57 chain: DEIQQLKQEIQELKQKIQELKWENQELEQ

[60] = target: T58, 4H850-bN; assay: two-hybrid library CCNG1
T58 chain: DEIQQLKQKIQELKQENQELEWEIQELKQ

[61] = target: T59, 4H570-bN; assay: two-hybrid library CCNG1
T59 chain: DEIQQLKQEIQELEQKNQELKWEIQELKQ

[62] = target: T60, 4H3974-bN; assay: two-hybrid library CCNG1
T60 chain: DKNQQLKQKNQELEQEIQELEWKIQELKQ

[63] = target: T61, O9-bN; assay: two-hybrid library CCNG1
T61 chain: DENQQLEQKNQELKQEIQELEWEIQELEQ

[64] = target: T62, O8-bN; assay: two-hybrid library CCNG1
T62 chain: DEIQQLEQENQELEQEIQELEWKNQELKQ

DENKQLEQKNQRLKQEIQRLEWEIQKLEQ [O9-bP]
interaction score [1]: -0.872

EIQSLEEKNSQLKQEISQLEEKNQQLKYG [P7mS]
interaction score [2]: 0.285 | interaction score [3]: -2.53 | interaction score [4]: -2.27 | interaction score [5]: -0.225

DKNAQLKQKIAELKQENAELEWKIAQLKQ [4H3926-bA]
interaction score [6]: 1.59 | interaction score [7]: -1.19 | interaction score [8]: -0.409 | interaction score [9]: 0 | interaction score [10]: -0.539 | interaction score [11]: -0.771 | interaction score [12]: -0.117 | interaction score [13]: 0.34 | interaction score [14]: -0.909 | interaction score [15]: 0.866 | interaction score [16]: -0.786 | interaction score [17]: -1.13 | interaction score [18]: -1.23 | interaction score [19]: 0.769 | interaction score [20]: -0.259

DEIAALEAKNAALKAKIAALEAKIAALKG [4H486-AA]
interaction score [21]: 0.819 | interaction score [22]: -1.84 | interaction score [23]: -0.289 | interaction score [24]: -1.97 | interaction score [25]: -1.16 | interaction score [26]: -0.249 | interaction score [27]: -1.34 | interaction score [28]: -1.06

DEIQELEKKNEELKREIWELKKKIQELKR [4H462-bH]
interaction score [29]: 0.452 | interaction score [30]: 0.229 | interaction score [31]: -2.48 | interaction score [32]: 1.31 | interaction score [33]: -0.33 | interaction score [34]: -0.231 | interaction score [35]: 0.335 | interaction score [36]: -0.483 | interaction score [37]: 0.264 | interaction score [38]: -0.847 | interaction score [39]: -0.0754

DKIAALKAEIAALKAENAALEAKNAALKG [4H2648-AA]
interaction score [40]: -1.8 | interaction score [41]: 1.21 | interaction score [42]: -1.35 | interaction score [43]: -1.38 | interaction score [44]: 1.45 | interaction score [45]: -0.735 | interaction score [46]: -0.309 | interaction score [47]: -1.8 | interaction score [48]: -1.84 | interaction score [49]: -1.49 | interaction score [50]: 1.9 | interaction score [51]: -1.14 | interaction score [52]: 0.455 | interaction score [53]: 1.28 | interaction score [54]: 0.769 | interaction score [55]: -1.06 | interaction score [56]: -1.35 | interaction score [57]: -0.651

DEIQQLKQEIQELKQEIQELEWKNQELKQ [4H584-bN]
interaction score [58]: 0.406 | interaction score [31]: -0.43 | interaction score [59]: 1.21 | interaction score [60]: 0.196

DKNQQLKQKNQELEQEIQELEWKIQELKQ [4H3974-bN]
interaction score [58]: -0.919 | interaction score [31]: -0.832 | interaction score [61]: -1.69 | interaction score [59]: -0.273 | interaction score [62]: -0.444 | interaction score [60]: 0.5

DENQQLEQKNQELKQEIQELEWEIQELEQ [O9-bN]
interaction score ([63]; mean of both orientations): -1.9

DEIQQLEQENQELEQEIQELEWKNQELKQ [O8-bN]
interaction score [63]: -0.872 | interaction score [64]: 0.371
